Test results reported in US10336832.

B1: M28-F01 (Fab, V domains shown)
VH: EVQLLESGGGLVQPGGSLRLSCAASGFTFSVYLMHWVRQAPGKGLEWVSGISPSGGYTQYADSVKGRFTISRDNSKNTLYLQMNSLRAEDTAVYYCARPGGLDAFDIWGQGTMVTVSS
VL: DIQMTQSPSSLSASVGDRVTITCRASQSINTYLNWYQQKPGKAPKVLIHAASTLESGVPSRFSGSGSGTDFTLTISSLQPEDFATYYCQQSYSTPPTFGQGTKVEIK
B2: M29-E02 (Fab, V domains shown)
VH: EVQLLESGGGLVQPGGSLRLSCAASGFTFSRYPMMWVRQAPGKGLEWVSVIYPSGGDTFYADSVKGRFTISRDNSKNTLYLQMNSLRAEDTAVYYCASGDDYLWEAAVYWGQGTLVTVSS
VL: QSVLTQPPSVSEAPRQRVTISCSGSSSNIGNNAVSWYQQLPGKAPKLLIYYDDLLPSGVSDRFSGSKSGTSASLAISGLRSEDEADYYCAAWDDSLNGFVFGTGTKVTVL
B3: X101-A01 (antibody, V domains shown)
VH: EVQLLESGGGLVQPGGSLRLSCAASGFTFSHYLMTWVRQAPGKGLEWVSYISPSGGHTIYADSVKGRFTISRDNSKNTLYLQMNSLRAEDTAVYYCARVARGIAARSRTSYFDYWGQGTLVTVSS
VL: EIVLTQSPGTLSLSPGERATLSCRTSQFVNSNYLAWYQQKPGQAPRLLIYGASSRATGIPDRFSGSGSGTDFTLTISRLEPEDFAVYYCQQSSRTPWTFGQGTKVEIK

How the values were obtained:
[1] = target: human plasma kallikrein (active form, purified from human plasma and activated with factor XIIa) (human) (UniProt P03952); assay: ELISA, target/background
[2] = target: pKal catalytic domain Mutant 4 (human) (UniProt P03952); assay: Ki,app, equilibrium, fluorogenic substrate
pKal catalytic domain Mutant 4 (human), sequence (P03952 other isoform, or with tags, fused parts or gaps mutant): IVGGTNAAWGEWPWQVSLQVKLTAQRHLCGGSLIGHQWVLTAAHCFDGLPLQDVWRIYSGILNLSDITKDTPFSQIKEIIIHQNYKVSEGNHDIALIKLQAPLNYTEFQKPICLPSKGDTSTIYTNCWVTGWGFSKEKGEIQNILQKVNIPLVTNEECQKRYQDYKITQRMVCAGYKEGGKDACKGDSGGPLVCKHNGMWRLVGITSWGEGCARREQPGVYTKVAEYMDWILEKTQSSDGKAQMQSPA

human plasma kallikrein (active form, purified from human plasma and activated with factor XIIa) (human), sequence (P03952 20-390 limits assumed, chain 1 of 2): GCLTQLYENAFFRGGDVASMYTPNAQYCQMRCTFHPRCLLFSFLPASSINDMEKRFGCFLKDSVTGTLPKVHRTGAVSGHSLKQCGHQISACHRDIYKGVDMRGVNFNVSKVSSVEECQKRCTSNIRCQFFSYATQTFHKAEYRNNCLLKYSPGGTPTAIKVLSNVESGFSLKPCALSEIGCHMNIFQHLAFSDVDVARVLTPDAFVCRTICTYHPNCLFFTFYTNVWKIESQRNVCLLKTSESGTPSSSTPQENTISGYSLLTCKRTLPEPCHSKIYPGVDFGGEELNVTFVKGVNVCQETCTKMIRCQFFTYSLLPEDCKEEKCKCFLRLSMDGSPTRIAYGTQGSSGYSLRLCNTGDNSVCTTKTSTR
human plasma kallikrein (active form, purified from human plasma and activated with factor XIIa) (human), sequence (P03952 391-638 limits assumed, chain 2 of 2): as the sequence (P03952 other isoform, or with tags, fused parts or gaps mutant) above, with A7S, A8S counted along it

| ELISA (T/B) [1] | Ki [2] | Binder |
| --- | --- | --- |
| 1.5 |  | B1 |
| 2 |  | B2 |
|  | 0.25 nM | B3 |
